Source: patent US9506077B2, “Synthetic chloroplast transit peptides” (DOW AGROSCIENCES LLC, priority 2012, dated 2016)

B1: TraP23: synthetic chloroplast transit peptide, SEQ ID NO:11; encoded by SEQ ID NO:12; tested fused to GFP, dgt-28, dgt-31, cry2Aa (protein)
chain: MAQINKSANGVRNASLISNFSNTRQAKSPFSLSCGTRLKNSSRGLKKVAVRLIGSRVKVSAS
modifications: TraP23 synthetic chloroplast transit peptide
notes: tested fused to GFP, dgt-28, dgt-31, cry2Aa
B2: TraP4: chloroplast transit peptide, encoding sequence SEQ ID NO:24, fused to dgt-28 (protein)
chain: MLARQGGSLRASQCNAGLARRVEVGALVVPRPISVNDVVPHVYSAPLSVARRSCSKSSIRSTRRLQTTVCS
modifications: Chloroplast Transit Peptide
B3: TraP8: chloroplast transit peptide, encoding sequence SEQ ID NO:26, fused to dgt-28 (protein)
chain: MAQSSRICHGVQNPCVIISNLSKSNQNKSPFSVSLKTHQQQRRAYQISSWGLKKSNNGSVIRPVKA
modifications: Chloroplast Transit Peptide

What was measured:
[1] = test system: T1 Arabidopsis; experiment: T1 Arabidopsis response to glyphosate applied postemergence (Tables 5-7); format: in vivo, Arabidopsis thaliana
Text: Transgenic T1 Arabidopsis plants containing the dgt-28 transgene were sprayed with differing rates of glyphosate. Elevated rates were applied in this study to determine the relative levels of resistance (105, 420, 1,680 or 3,360 g ae/ha). A typical 1× usage rate of glyphosate that will control non-transformed Arabidopsis is 420 g ae/ha. […] The T1 Arabidopsis plants that were used in this study were variable copy number for the dgt-28 transgene. The low copy dgt-28 T1 Arabidopsis plants were self-pollinated and used to produce T2 plants.
The Arabidopsis T1 transformants were first selected from the background of untransformed seed using a glufosinate selection scheme. Three flats or 30,000 seed were analyzed for each T1 construct. The T1 plants selected above were molecularly characterized and representative plants with variable copy number were subsequently transplanted to individual pots and sprayed with various rates of commercial glyphosate as previously described. The response of these plants is presented in terms of % visual injury 2 weeks after treatment (WAT). […] An arithmetic mean and standard deviation is presented for each construct used for Arabidopsis transformation. The range in individual response is also indicated in the last column for each rate and transformation. Wild-type, non-transformed Arabidopsis (c.v. Columbia) served as a glyphosate sensitive control.

[2] = test system: chloroplasts of the tobacco cells; experiment: Tobacco transient assay, confocal microscopy of TraP-GFP; format: cell-based, Nicotiana benthamiana; conditions: TraP23-GFP, infiltrated tobacco leaf
Text: The Trap23 synthetic chloroplast transit peptide sequence were initially tested via a transient in planta assay. A polynucleotide sequence which encodes the Trap23v2 (SEQ ID NO:12) synthetic chloroplast transit peptide sequences was synthesized. The resulting construct contained two plant transcription units (PTU). The first PTU was comprised of the Arabidopsis thaliana Ubiquitin 10 promoter (AtUbi10 promoter; Callis, et al., (1990) J. Biol. Chem., 265: 12486-12493), TraP-green fluorescent protein fusion gene (TraP-GFP; U.S. Pat. No. 7,678,893), and Agrobacterium tumefaciens ORF 23 3′ untranslated region (AtuORF23 3′UTR; U.S. Pat. No. 5,428,147). […]
Agrobacterium-infiltrated tobacco leaves were severed from the plant, and placed into a petri-dish with water to prevent dehydration. The infiltrated tobacco leaves were observed under blue light excitation with long-pass filter glasses held in place using a Dark Reader Hand Lamp™ (Clare Chemical Research Co.; Dolores, Colo.) to identify undamaged areas of the leaf that were successfully expressing the GFP reporter proteins. […]

[3] = test system: infiltrated tobacco cells; experiment: Tobacco transient assay, anti-GFP Western blot; format: cell-based, Nicotiana benthamiana; conditions: infiltrated tobacco leaf; band size vs GFP control
Experimental: Samples of the infiltrated tobacco plants were assayed via Western blotting. Leaf punches were collected and subjected to bead-milling. About 100-200 mg of leaf material was mixed with 2 BBs (steel balls; Daisy; Rogers, Ark.) and […] of PBST for 3 minutes in a Kleco™ bead mill. The samples were then spun down in a centrifuge at 14,000×g at 4° C. The supernatant was removed and either analyzed directly via Western blot or immunoprecipitated. The immunoprecipitations were performed using the Pierce Direct IP Kit™ (Thermo Scientific; Rockford, Ill.) following the manufacturer's protocol. Approximately, 50 μg of anti-GFP was bound to the resin. The samples were incubated with the resin overnight at 4° C. Next, the samples were washed and eluted the following morning and prepped for analysis by combining equal volumes of 2×8M Urea sample buffer and then boiling the samples for 5 minutes. The boiled samples were run on a 4-12% SDS-Bis Tris gel in MOPS buffer for 40 minutes. The gel was then blotted using the Invitrogen iBlot™ (Life Technologies; Carlsbad, Calif.) following the manufacturer's protocol. The blotted membrane was blocked for 10 minutes using 5% non-fat dry milk in PBS-Tween solution. The membrane was probed with the primary antibody (monoclonal anti-GFP in rabbit) used at a 1:1000 dilution in the 5% non-fat dry milk in PBS-Tween solution for 1 hour. […]

[4] = test system: chloroplasts of the maize protoplast; experiment: Maize protoplast transient assay, GFP microscopy; format: cell-based, Zea mays var. B104; conditions: TraP23-GFP, maize protoplasts, 12 hours incubation
Text: The Trap23 v2 synthetic chloroplast transit peptide-encoding polynucleotide sequence (SEQ ID NO:12) was cloned upstream of the green fluorescent protein gene and incorporated into the pDAB106598 construct (FIG. 5) for testing via the maize protoplast transient in planta assay. The resulting construct contained the following plant transcription unit (PTU). The first PTU was comprised of the Zea mays Ubiquitin 1 promoter (ZmUbi1 promoter; Christensen, A., Sharrock R., and Quail P., (1992) Maize polyubiquitin genes: structure, thermal perturbation of expression and transcript splicing, and promoter activity following transfer to protoplasts by electroporation, Plant Molecular Biology, 18:675-689), TraP-green fluorescent protein fusion gene (TraP23-GFP; U.S. Pat. No. 7,678,893), and Zea mays Peroxidase 5 3′ untranslated region (ZmPer5 3′UTR; U.S. Pat. No. 6,384,207). The construct was confirmed via restriction enzyme digestion and sequencing.
Seed of Zea mays var. B104 were surface sterilized by shaking vigorously in 50% Clorox (3% sodium hypochlorite), containing 2-3 drops of Tween 20, for about 20 minutes. […]
Transfection of 100 to 500 μl of protoplasts (1-5×10^5) was completed by adding the protoplasts to a 2 ml microfuge tube containing about 40 μg of plasmid DNA (pDAB106598), at room temperature. […] Fluorescence of GFP was viewed by microscopy after 12 hours of incubation. […]

[5] = test system: T1 tobacco; experiment: Postemergence glyphosate tolerance of dgt-28 T1 tobacco (Table 25); format: in vivo, Tobacco (cv. Petit Havana); conditions: 2240 g ae/ha glyphosate, 14 DAT
Text: T1 resistant plants from each event used in the progeny testing were given unique identifiers and sampled for zygosity analyses of the dgt-28 gene. Zygosity data were used to assign 2 hemizygous and 2 homozygous replicates to each rate of glyphosate applied allowing for a total of 4 replicates per treatment. These plants were compared against wildtype Petite havana tobacco. All plants were sprayed with a track sprayer set at 187 L/ha. The plants were sprayed from a range of 560-4480 g ae/ha DURANGO DMA™. All applications were formulated in water with the addition of 2% w/v ammonium sulfate (AMS). Plants were evaluated at 7 and 14 days after treatment. Plants were assigned an injury rating with respect to overall visual stunting, chlorosis, and necrosis. The T1 generation is segregating, so some variable response is expected due to difference in zygosity.

Row | Molecule | typical 1x usage rate of glyphosate that will control non-transformed Arabidopsis [1] [g ae/ha] | accumulation of GFP protein within the chloroplasts (microscopy imaging) [2] | processing and cleavage of transit peptide from GFP (Western blot) [3] | accumulation of GFP within the chloroplasts (microscopy imaging) [4] | % Injury Ave [5]
1 | O=C(O)CNCP(=O)(O)O [glyphosate] | 420 | – | – | – | –
2 | B1 | – | did not accumulate detectable amounts of GFP protein within the chloroplasts | processed | accumulated within the chloroplasts | 9.5%
3 | B2 | – | – | – | – | of 37.5% was demonstrated with the event containing TraP4,
4 | B3 | – | – | – | – | 9.3%
